This is an account of results in patent publication US20170189504A1.

Bounds are passed on as bounds.

B1: SEQ ID NO: 182 peptide … (peptide)
peptide: IYQLDTASI
B2: SEQ ID NO: 184 peptide … (peptide)
peptide: VFQNFPLLF
B3: SEQ ID NO: 186 peptide … (peptide)
peptide: IFPQFLYQF
B4: SEQ ID NO: 272 peptide … (peptide)
peptide: QYLQDAYSF
B5: SEQ ID NO: 224 peptide … (peptide)
peptide: QYLENLEKL
B6: SEQ ID NO: 282 peptide … (peptide)
peptide: KFVDSTFYL
B7: SEQ ID NO: 192 peptide … (peptide)
peptide: SYALLTYMI
B8: SEQ ID NO: 227 peptide … (peptide)
peptide: IFLDYEAGTLSF
B9: SEQ ID NO: 274 peptide … (peptide)
peptide: AYLHSHALI
B10: SEQ ID NO: 172 peptide … (peptide)
peptide: TYTTVPRVAF
B11: SEQ ID NO: 221 peptide … (peptide)
peptide: RYSTGLAGNLL
B12: SEQ ID NO: 185 peptide … (peptide)
peptide: IYKVGAPTI
B13: SEQ ID NO: 273 peptide … (peptide)
peptide: TYIKPISKL
B14: SEQ ID NO: 190 peptide … (peptide)
peptide: GFFIFNERF
B15: SEQ ID NO: 188 peptide RYFKGLVF (peptide)
peptide: RYFKGLVF
B16: SEQ ID NO: 226 peptide … (peptide)
peptide: VYRDETGELF
B17: SEQ ID NO: 193 peptide … (peptide)
peptide: RFHPTPLLL
B18: SEQ ID NO: 211 peptide … (peptide)
peptide: YYLEVGKTLI
B19: SEQ ID NO: 228 peptide … (peptide)
peptide: KYTSWYVAL
B20: SEQ ID NO: 177 peptide … (peptide)
peptide: VYPWLGALL
B21: SEQ ID NO: 216 peptide … (peptide)
peptide: QYSSVFKSL
B22: SEQ ID NO: 205 peptide … (peptide)
peptide: VHIPEVYLI
B23: SEQ ID NO: 219 peptide … (peptide)
peptide: EYPLVINTL
B24: SEQ ID NO: 217 peptide … (peptide)
peptide: FFPPTRQMGLLF
B25: SEQ ID NO: 198 peptide … (peptide)
peptide: LYLDKATLI
B26: SEQ ID NO: 183 peptide … (peptide)
peptide: VFTSTARAF
B27: SEQ ID NO: 208 peptide … (peptide)
peptide: TYTQDFNKF
B28: SEQ ID NO: 194 peptide … (peptide)
peptide: EFGSLHLEFL
B29: SEQ ID NO: 189 peptide … (peptide)
peptide: WYVNGVNYF
B30: SEQ ID NO: 279 peptide … (peptide)
peptide: TYIESASEL
B31: SEQ ID NO: 179 peptide … (peptide)
peptide: MYDSYWRQF
B32: SEQ ID NO: 178 peptide … (peptide)
peptide: IFIEVFSHF
B33: SEQ ID NO: 191 peptide … (peptide)
peptide: VFKASKITF
B34: SEQ ID NO: 275 peptide … (peptide)
peptide: EYINQGDLHEF
B35: SEQ ID NO: 214 peptide … (peptide)
peptide: LYLKLWNLI
B36: SEQ ID NO: 180 peptide … (peptide)
peptide: IYDDSFIRPVTF
B37: SEQ ID NO: 276 peptide … (peptide)
peptide: VYGFQWRHF
B38: SEQ ID NO: 280 peptide … (peptide)
peptide: RYPDNLKHLYL
B39: SEQ ID NO: 215 peptide YFDKVVTL (peptide)
peptide: YFDKVVTL
B40: SEQ ID NO: 225 peptide … (peptide)
peptide: YYVYIMNHL
B41: SEQ ID NO: 223 peptide … (peptide)
peptide: KYIPYKYVI
B42: SEQ ID NO: 210 peptide … (peptide)
peptide: IYTMIYRNL
B43: SEQ ID NO: 187 peptide … (peptide)
peptide: TYLRDQHFL
B44: SEQ ID NO: 203 peptide … (peptide)
peptide: FYSRLLQKF
B45: SEQ ID NO: 206 peptide … (peptide)
peptide: EYQENFLSF
B46: SEQ ID NO: 267 peptide … (peptide)
peptide: KYMVYPQTF
B47: SEQ ID NO: 278 peptide … (peptide)
peptide: RYISDQLFTNF
B48: SEQ ID NO: 181 peptide … (peptide)
peptide: LYLDIINLF
B49: SEQ ID NO: 271 peptide … (peptide)
peptide: LYHDIFSRL

This assay addresses HLA-A*24 (human). In words: UV-ligand exchange, anti-b2m ELISA. In general terms: An ELISA detects its analyte on a solid surface through an enzyme-linked reagent.
Molecule B1 showed a peptide exchange yield of 50 to 75%.

In the case of B2, the peptide exchange yield was above 75%.

Turning to B3, the peptide exchange yield is above 75%.

B4 came in with a peptide exchange yield above 75%.

For B5, the peptide exchange yield was in the range of 50 to 75%.

Take B6: the peptide exchange yield is above 75%.

B7 returned a peptide exchange yield above 75%.

B8 came in with a peptide exchange yield above 75%.

As for B9, the peptide exchange yield was above 75%.

B10 showed a peptide exchange yield above 75%.

B11 gave a peptide exchange yield of 50 to 75%.

Turning to B12, the peptide exchange yield fell in the range of 50 to 75%.

The molecule B13 came in with a peptide exchange yield of 50 to 75%.

For the molecule B14, the peptide exchange yield was 50 to 75%.

Take B15: the peptide exchange yield was 50 to 75%.

For the molecule B16, the peptide exchange yield lay within 50 to 75%.

For B17, the peptide exchange yield was above 75%.

With B18, the peptide exchange yield was above 75%.

For B19, the peptide exchange yield was above 75%.

B20 registered a peptide exchange yield above 75%.

Consider B21, for which the peptide exchange yield is above 75%.

For B22, the peptide exchange yield fell in the range of 50 to 75%.

On to B23, for which the peptide exchange yield lay in the range of 50 to 75%.

B24 gave a peptide exchange yield above 75%.

In turn, B25 returned a peptide exchange yield of 50 to 75%.

As for B26, the peptide exchange yield lay within 50 to 75%.

Molecule B27 showed a peptide exchange yield of 50 to 75%.

Regarding B28, the peptide exchange yield was below 20%.

Molecule B29 had a peptide exchange yield of 20 to 49%.

On to B30, for which the peptide exchange yield lay within 50 to 75%.

In turn, B31 yielded a peptide exchange yield above 75%.

With B32, the peptide exchange yield lay within 50 to 75%.

Take B33: the peptide exchange yield lay within 50 to 75%.

As to B34, the peptide exchange yield is 50 to 75%.

The molecule B35 yielded a peptide exchange yield of 50 to 75%.

B36: the peptide exchange yield was 50 to 75%.

B37 returned a peptide exchange yield above 75%.

With B38, the peptide exchange yield was above 75%.

In the case of B39, the peptide exchange yield is 20 to 49%.

Turning to B40, the peptide exchange yield was 50 to 75%.

In the case of B41, the peptide exchange yield lay within 50 to 75%.

B42 returned a peptide exchange yield above 75%.

On to B43, for which the peptide exchange yield is above 75%.

For the molecule B44, the peptide exchange yield fell in the range of 50 to 75%.

In the case of B45, the peptide exchange yield is 50 to 75%.

For the molecule B46, the peptide exchange yield is above 75%.

In turn, B47 showed a peptide exchange yield above 75%.

B48: the peptide exchange yield was above 75%.

The molecule B49 returned a peptide exchange yield above 75%.
